In the supplement of paper PMC10567573 one finds protein stability index data, which are given here for 94 variants.

B1: FAM189A2 (parent)
chain: VAAALRYLQIFATRRSCIDESQIS
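Also: lentivirally expressed fusions sorted by FACS into six bins by GFP to DsRed ratio, PSI derived from sequencing read proportions per bin multiplied by bin number.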

In the data set the parent is B1. Description: protein stability index of a GFP-peptide fusion (GPS, HEK-293T) (PSI 1-6); higher = more stable. The following applies: c terminus: a fixed tail appended.
Consider VAAALRYLQIFATQRSCIDESQIS [R14Q], for which the protein stability index was found to be 1.91. To VAAALRYLQIFATARSCIDESQIS [R14A] belongs 1.61; to VAAALRYLQIFATRRSCIDESQIH [S24H], 2.29; to VAAALRYLQIFATRRSCIDESQIA [S24A], 2.76. To VAAALRYLQIFATRRSCIDESQIE [S24E] belongs 1.52; to VAAALRYLQIFATRRSCIDESQIF [S24F], 3.22; to VAAALRYLQIFATRRSCIDESQIG [S24G], 2.54. To VAAALRYLQIFATRRSCIDESQIC [S24C] belongs 3.79; to VAAALRYLQIFATRRSCIDERQIS [S21R], 2.78. In the case of VAAALRYLQIFATRRSCIDEGQIS [S21G], the protein stability index came out at 1.83. Then VAAALRYLQIFATRRSCIDEYQIS [S21Y], with 4.49; and VAAALRYLQIFATRRSCIDEKQIS [S21K], with 2.61; and VAAALRYLQIFATRRSCIDEMQIS [S21M], with 3.11. Take VAAALRYLQIFATRRSCIDEDQIS [S21D]: the protein stability index was 2.28.

Take VAAALRYLQIFATRRSCIDEHQIS [S21H]: the protein stability index was 2.45.

Consider VAAALRYLQIFATRRSCIDEEQIS [S21E], for which the protein stability index is 2.91. VAAALRYLQIFATRRSCIDEIQIS [S21I]: the protein stability index worked out at 4.41. Then VAAALRYLQIFATRRSCIDECQIS [S21C], with 1.98; and VAAALRYLQIFATRRSCIDETQIS [S21T], with 2.03. To VAAALRYLQIFATRRSCIDEPQIS [S21P] belongs 1.97. On to VAAALRYLQIFATRRSCIDENQIS [S21N], for which the protein stability index amounted to 1.73.

In the case of VAAALRYLQIFATRRSCIDELQIS [S21L], the protein stability index worked out at 2.45. For VAAALRYLQIFATRRSCIDEWQIS [S21W], the protein stability index was determined as 2.67. To VAAALRYLQIFATRRSCIDEQQIS [S21Q] belongs 2.85; to VAAALRYLQIFATRMSCIDESQIS [R15M], 1.28. In the case of VAAALRYLQIFATRYSCIDESQIS [R15Y], the protein stability index amounted to 2.55. Regarding VAAALRYLQIFATRQSCIDESQIS [R15Q], the protein stability index was found to be 1.67. Then VAAALRYLQIFATRPSCIDESQIS [R15P], with 1.52. To VAAALRYLQIFATRHSCIDESQIS [R15H] belongs 1.94.

Regarding VAAALRYLQIFATRSSCIDESQIS [R15S], the protein stability index amounted to 1.99. Then VAAALRYLQIFATRCSCIDESQIS [R15C], with 2.03. Consider VAAALRYLQIFATRDSCIDESQIS [R15D], for which the protein stability index amounted to 1.88. To VAAALRYLQIFATRNSCIDESQIS [R15N] belongs 1.59; to VAAALRYLQIFATRESCIDESQIS [R15E], 2.13; to VAAALRYLQIFATRTSCIDESQIS [R15T], 2.69. Then VAAALRYLQIFATRKSCIDESQIS [R15K], with 2.62. Then VAAALRYLQIFATRLSCIDESQIS [R15L], with 1.35; and VAAALRYLQIFATRVSCIDESQIS [R15V], with 2.81; and VAAALRYLQIFATRISCIDESQIS [R15I], with 1.77.

Regarding VAAALRYLQIFATRASCIDESQIS [R15A], the protein stability index stood at 2.44.

VAAALRYLQIFATRFSCIDESQIS [R15F]: the protein stability index is 2.52. To VAAALRYLQIFATRRSCIYESQIS [D19Y] belongs 4.69; to VAAALRYLQIFATRRSCIMESQIS [D19M], 3.73; to VAAALRYLQIFATRRSCILESQIS [D19L], 3.03. Then VAAALRYLQIFATRRSCITESQIS [D19T], with 2.36; and VAAALRYLQIFATRRSCICESQIS [D19C], with 3.29; and VAAALRYLQIFATRRSCINESQIS [D19N], with 2.04. Then VAAALRYLQIFATRRSCIIESQIS [D19I], with 2.5; and VAAALRYLQIFATRRSCIVESQIS [D19V], with 3.57. VAAALRYLQIFATRRSCIKESQIS [D19K]: the protein stability index was 3.22.

VAAALRYLQIFATRRSCIEESQIS [D19E]: the protein stability index is 2.01. Then VAAALRYLQIFATRRSCIGESQIS [D19G], with 2.56.

In the case of VAAALRYLQIFATRRSCIRESQIS [D19R], the protein stability index came to 2.05. Then VAAALRYLQIFATRRSCIAESQIS [D19A], with 2.45. Then VAAALRYLQIFATRRSCIQESQIS [D19Q], with 1.13; and VAAALRYLQIFATRRSCIWESQIS [D19W], with 4.35.

Take VAAALRYLQIFATRRSCIFESQIS [D19F]: the protein stability index amounted to 1.75. Then VAAALRYLQIFATRRSCIPESQIS [D19P], with 1.77; and VAAALRYLQIFATRRSCIDESVIS [Q22V], with 2.87. To VAAALRYLQIFATRRSCIDESEIS [Q22E] belongs 2.15; to VAAALRYLQIFATRRSCIDESKIS [Q22K], 2.53; to VAAALRYLQIFATRRSCIDESFIS [Q22F], 2.04. Then VAAALRYLQIFATRRSCIDESGIS [Q22G], with 3; and VAAALRYLQIFATRRSCIDESSIS [Q22S], with 2.22; and VAAALRYLQIFATRRSCIDESNIS [Q22N], with 1.77. As to VAAALRYLQIFATRRSCIDESTIS [Q22T], the protein stability index turned out to be 1.07. To VAAALRYLQIFATRRSCIDESCIS [Q22C] belongs 4.63; to VAAALRYLQIFATRRSCIDESWIS [Q22W], 3.61; to VAAALRYLQIFATRRSCIDESPIS [Q22P], 2.26. For VAAALRYLQIFATRRSCIDESHIS [Q22H], the protein stability index amounted to 2.61. To VAAALRYLQIFATRRSCIDESYIS [Q22Y] belongs 1.16; to VAAALRYLQIFATRRSCIDESDIS [Q22D], 2.32.

For the variant VAAALRYLQIFATRRSCIDPSQIS [E20P], the protein stability index was 3.3.

As for VAAALRYLQIFATRRSCIDYSQIS [E20Y], the protein stability index was found to be 3.14. To VAAALRYLQIFATRRSCIDKSQIS [E20K] belongs 3.19. Then VAAALRYLQIFATRRSCIDASQIS [E20A], with 1.65; and VAAALRYLQIFATRRSCIDGSQIS [E20G], with 2.34.

Take VAAALRYLQIFATRRSCIDWSQIS [E20W]: the protein stability index is 4.07. Then VAAALRYLQIFATRRSCIDLSQIS [E20L], with 3.32; and VAAALRYLQIFATRRSCIDMSQIS [E20M], with 2.92; and VAAALRYLQIFATRRSCIDRSQIS [E20R], with 1.24.

With VAAALRYLQIFATRRSCIDTSQIS [E20T], the protein stability index stood at 3.24. To VAAALRYLQIFATRRSCIDDSQIS [E20D] belongs 2.1. On to VAAALRYLQIFATRRSCIDSSQIS [E20S], for which the protein stability index is 2.66. As for VAAALRYLQIFATRRSCIDCSQIS [E20C], the protein stability index amounted to 3.76. To VAAALRYLQIFATRRSCIDNSQIS [E20N] belongs 2.85; to VAAALRYLQIFATRRSCIDQSQIS [E20Q], 2.35; to VAAALRYLQIFPTRRSCIDESQIS [A12P], 3.67. Then VAAALRYLQIFVTRRSCIDESQIS [A12V], with 2.09. With VAAALRYLQIFSTRRSCIDESQIS [A12S], the protein stability index amounted to 3.61. Then VAAALRYLQIFQTRRSCIDESQIS [A12Q], with 2.29; and VAAALRYLQIFYTRRSCIDESQIS [A12Y], with 2.74.

As to VAAALRYLQIFRTRRSCIDESQIS [A12R], the protein stability index came out at 2.46.

Take VAAALRYLQIFTTRRSCIDESQIS [A12T]: the protein stability index was determined as 1.97.
